This assay addresses human HER2 (ErbB2) (human) (UniProt P04626). Put plainly: cell-based or functional assay.

Regarding “murine monoclonal antibody 4D5 (ATCC CRL 10463)”, the inhibition of SK-BR-3 relative cell proliferation (crystal violet, 72 h, 5 ug/ml antibody) worked out at 56% and the maximum inhibition of cell proliferation in SK-BR-3 cells amounted to 66%.

(Values after patent publication EP2283866A2.)
